# Test results reported in article PMC5548745, “Agonist-induced dimer dissociation as a macromolecular step in G protein-coupled receptor signaling” (Nature Communications, 2017).
# Assays:
# [1] = test system: FZD6–FZD6 dimer; assay: dcFRAP of V5-FZD6-mCherry/FZD6-GFP (FZD6 dimerization); assay type: cell-based, human; conditions: HEK293, after CL
# How it was run: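 Live cells co-expressing V5-FZD6-mCherry and FZD6-GFP, surface V5 tag crosslinked with biotin-anti-V5 plus avidin in BE buffer at RT. Membrane areas photobleached, recovery imaged (488/561 nm) over 100 s; mobile fraction from background/bleach-corrected, pre-bleach-normalized intensity at 85-101 s. Cells with <40% crosslink-induced mobility reduction excluded.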
# [2] = test system: ERK1/2 phosphorylation in MLE-12 cells; assay: P-ERK1/2 immunoblot, WNT-5A stimulated MLE-12 cells; assay type: cell-based, mouse; conditions: 300 ng ml^−1 WNT-5A
# Method: MLE-12 or HEK293 cells (ATCC) were plated in a 24- or 48-well plate at a density of 100,000 or 50,000 cells/well, respectively. After 24 h, cells were transfected using Lipofectamine 2000 according to the manufacturer’s instructions. Cells were stimulated (24 h post-transfection) with 300 ng ml^−1 recombinant carrier-free WNT-5A (CF WNT-5A; R&D Systems). Stimulation was stopped by the addition of lysis buffer (1% NP-40, 150 mM NaCl, 50 mM Tris/HCl pH 8). Lysates were sonicated and analyzed by 7.5 or 10% Mini-PROTEAN TGX precast polyacrylamide gels (Bio-Rad) and transferred to PVDF membranes using the Trans-Blot Turbo system (Bio-Rad). […] Proteins were detected with horseradish peroxidase-conjugated secondary antibodies (goat anti-rabbit and goat anti-mouse (Pierce)) and Clarity Western ECL Blotting Substrate (Bio-Rad). […]
# Supplementary Figure 6: FZD6 in mouse lung epithelial cells, related to Figure 6. […] The bar graph depicts expression levels of fzd1-10 mRNA in mouse lung epithelial cells (MLE-12) measured by quantitative PCR. […] Primer efficiency has been quantified previously (Halleskog et al., 2012). (b) MLE-12 wt and CRISPR/Cas9 FZD6+/- cells were seeded in a 24-well plate and counted after trypsinization at the indicated time points. Cell proliferation was quantified by cell counting in a Bürker chamber. […]
# [3] = test system: SNAP-FZD6; assay: SNAP-FZD6 internalization by confocal microscopy; assay type: cell-based; conditions: HEK293; WNT-5A 300 ng ml^−1, 15 min
# Method: SNAP-FZD6 and SNAP-β2-AR were imaged in living cells using a Zeiss LSM710 equipped with a 40×, 1.2 NA C-Apochromat objective. The cell-impermeable SNAP substrate SNAP-Surface 549 (New England Biolabs) was added (1:1000, 15 min), washed twice in BE buffer and imaged using the 561 nm laser line. SNAP-FZD6 and SNAP-β2-AR were stimulated with 300 ng ml^−1 WNT-5A and 10 µM isoproterenol, respectively, and fluorescence was monitored over time.
molecule,measurement,setting,value
"WNT-5A: recombinant carrier-free WNT-5A (R&D Systems), agonist for FZDs (protein, UniProt P41221 62-380, looked up) Protein Wnt-5a: IIGAQPLCSQLAGLSQGQKKLCHLYQDHMQYIGEGAKTGIKECQYQFRHRRWNCSTVDNTSVFGRVMQIGSRETAFTYAVSAAGVVNAMSRACREGELSTCGCSRAARPKDLPRDWLWGGCGDNIDYGYRFAKEFVDARERERIHAKGSYESARILMNLHNNEAGRRTVYNLADVACKCHGVSGSCSLKTCWLQLADFRKVGDALKEKYDSAAAMRLNSRGKLVQVNSRFNSPTTQDLVYIDPSPDYCVRNESTGSLGTQGRLCNKTSEGMDGCELMCCGRGYDQFKTVQTERCHCKFHWCCYVKCKKCTEIVDQFVCK","mobile fraction of FZD6-GFP after WNT-5A, 5 min","[1]; WNT-5A 300 ng ml^−1, 5 min, 12 ROIs",71.8 ± 3.2%
same,"mobile fraction of FZD6-GFP after WNT-5A, 20 min","[1]; WNT-5A 300 ng ml^−1, 20 min, 15 ROIs",61.0 ± 2.2%
same,phosphorylation of ERK1/2 on WNT-5A stimulation,[2],"time-dependent, partially pertussis toxin-sensitive phosphorylation of ERK1/2"
same,time of maximal increase in P-ERK1/2,"[2]; 0–20 min, three independent experiments",5 min
same,internalization of SNAP-FZD6,[3],minimal internalization of SNAP-FZD6 was observed and this was not enhanced by the addition of recombinant WNT-5A
